Data from the Immune Epitope Database (IEDB).

Assays:
HLA-A*32:01 = test: IEDB peptide-MHC binding, purified MHC/competitive/radioactivity; filed as Kd, often an IC50 or EC50 that approximates it; ≥ and ≤ were set here for values at or beyond the usual limits of such assays
HLA-A*30:01 = test: as above
HLA-A*29:02 = test: as above
HLA-A*30:02 = test: as above
HLA-A*26:01 [1] = test: as above
HLA-A*01:01 [2] = test: as above
HLA-A*23:01 = test: as above
HLA-A*24:02 = test: as above
HLA-A*11:01 = test: IEDB peptide-MHC binding, purified MHC/direct/fluorescence; filed as Kd, often an IC50 or EC50 that approximates it; ≥ and ≤ were set here for values at or beyond the usual limits of such assays; conditions: source organism: Brucella suis
HLA-A*69:01 = test: as above; conditions: source organism: Brucella suis
HLA-B*44:02 = test: as above; conditions: source organism: Brucella suis
HLA-A*26:01 [3] = test: as above; conditions: source organism: Brucella suis
HLA-A*31:01 = test: as above; conditions: source organism: Brucella suis
HLA-A*03:01 = test: as above; conditions: source organism: Brucella suis
HLA-B*15:01 = test: as above; conditions: source organism: Brucella suis
HLA-A*01:01 [4] = test: as above; conditions: source organism: Brucella suis
HLA-A*02:01 = test: as above; conditions: source organism: Brucella suis
HLA-B*07:02 = test: as above; conditions: source organism: Brucella suis
HLA-B*27:05 = test: as above; conditions: source organism: Brucella suis
HLA-B*58:01 = test: as above; conditions: source organism: Brucella suis
HLA-B*40:01 = test: as above; conditions: source organism: Brucella suis
HLA-B*08:01 = test: as above; conditions: source organism: Brucella suis
HLA-B*18:01 = test: as above; conditions: source organism: West Nile virus
[5] = source organism: Vaccinia virus Copenhagen
[6] = source organism: Mammarenavirus guanaritoense
[7] = source organism: Mammarenavirus brazilense
[8] = source organism: SARS coronavirus Tor2
[9] = source organism: Dengue virus 1 Brazil/97-11/1997
[10] = source organism: Lymphocytic choriomeningitis virus (strain Armstrong)

With AQDFQSLTI the Kd (HLA-A*32:01; [5]) was 67.6 nM.
Work on CSKILDLCY yielded a Kd (HLA-A*30:01; [6]) of 14900 nM, a Kd (HLA-A*29:02; [6]) of 3620 nM and a Kd (HLA-A*30:02; [6]) of 664 nM. It also gave a Kd (HLA-A*26:01 [1]; [6]) of no less than 54600 nM, a Kd (HLA-A*32:01; [6]) of no less than 50900 nM and a Kd (HLA-A*01:01 [2]; [6]) of 53.1 nM.
DEALRGFLLY gave a Kd (HLA-A*23:01; [7]) of 5860 nM, a Kd (HLA-A*29:02; [7]) of no less than 59100 nM and a Kd (HLA-A*24:02; [7]) of no less than 37500 nM. For the same sequence, the Kd (HLA-A*30:02; [7]) was no less than 69700 nM, the Kd (HLA-A*26:01 [1]; [7]) was no less than 69700 nM and the Kd (HLA-A*01:01 [2]; [7]) was 14800 nM.
DEEPMELDY showed a Kd (HLA-A*23:01; [8]) of no less than 59000 nM, a Kd (HLA-A*29:02; [8]) of 1130 nM and a Kd (HLA-A*24:02; [8]) of no less than 77600 nM. It also gave a Kd (HLA-A*30:02; [8]) of no less than 42000 nM, a Kd (HLA-A*26:01 [1]; [8]) of no less than 73600 nM and a Kd (HLA-A*01:01 [2]; [8]) of 2000 nM.
With DHEFVDEFY the Kd (HLA-A*23:01; [8]) was no less than 66200 nM, the Kd (HLA-A*29:02; [8]) was 1170 nM and the Kd (HLA-A*24:02; [8]) was no less than 77600 nM. The Kd (HLA-A*30:02; [8]) was no less than 22500 nM, the Kd (HLA-A*26:01 [1]; [8]) was 13900 nM and the Kd (HLA-A*01:01 [2]; [8]) was 262 nM.
For DTVWEVQGY, the Kd (HLA-A*23:01; [8]) was no less than 77800 nM, the Kd (HLA-A*29:02; [8]) was 4250 nM and the Kd (HLA-A*24:02; [8]) was no less than 77600 nM. It also gave a Kd (HLA-A*30:02; [8]) of 1320 nM, a Kd (HLA-A*26:01 [1]; [8]) of 1.64 nM and a Kd (HLA-A*01:01 [2]; [8]) of 8020 nM.
Sequence DVIGNDRQE has a Kd (HLA-A*11:01) of no less than 20000 nM, a Kd (HLA-A*69:01) of no less than 20000 nM and a Kd (HLA-B*44:02) of no less than 20000 nM. The Kd (HLA-A*26:01 [3]) was no less than 20000 nM, the Kd (HLA-A*31:01) was no less than 20000 nM and the Kd (HLA-A*03:01) was no less than 20000 nM. The Kd (HLA-B*15:01) was no less than 20000 nM, the Kd (HLA-A*01:01 [4]) was no less than 20000 nM and the Kd (HLA-A*02:01) was no less than 20000 nM. The Kd (HLA-B*07:02) was no less than 20000 nM, the Kd (HLA-B*27:05) was no less than 20000 nM and the Kd (HLA-B*58:01) was no less than 20000 nM. The Kd (HLA-B*40:01) was no less than 20000 nM and the Kd (HLA-B*08:01) was no less than 20000 nM.
Work on ELLNTPYCNY yielded a Kd (HLA-A*30:01; [7]) of no less than 70400 nM, a Kd (HLA-A*29:02; [7]) of 837 nM and a Kd (HLA-A*30:02; [7]) of 206 nM. The Kd (HLA-A*26:01 [1]; [7]) was 275 nM, the Kd (HLA-A*32:01; [7]) was no less than 39900 nM and the Kd (HLA-A*01:01 [2]; [7]) was 12300 nM.
For EMVMCGGSLY, the Kd (HLA-A*23:01; [8]) was no less than 70000 nM, the Kd (HLA-A*29:02; [8]) was 13.9 nM and the Kd (HLA-A*24:02; [8]) was no less than 70300 nM. The Kd (HLA-A*30:02; [8]) was 38.1 nM, the Kd (HLA-A*26:01 [1]; [8]) was 19.9 nM and the Kd (HLA-A*01:01 [2]; [8]) was 468 nM.
EYADVFHLY gave a Kd (HLA-A*23:01; [8]) of 176 nM, a Kd (HLA-A*29:02; [8]) of 48.8 nM and a Kd (HLA-A*24:02; [8]) of 784 nM. For the same sequence, the Kd (HLA-A*30:02; [8]) was 10.8 nM, the Kd (HLA-A*26:01 [1]; [8]) was 27.7 nM and the Kd (HLA-A*01:01 [2]; [8]) was no less than 26200 nM.
FFQDIPIFF was tested, and the Kd (HLA-A*23:01; [6]) was 10.3 nM, the Kd (HLA-A*29:02; [6]) was 0.08 nM and the Kd (HLA-A*24:02; [6]) was 159 nM.
GSAKLQWFVE was tested, and the Kd (HLA-A*32:01; source organism: Dengue virus 3 Martinique/1243/1999) was no less than 69900 nM.
With GYLKPTTFML the Kd (HLA-A*23:01; [8]) was 33.6 nM, the Kd (HLA-A*29:02; [8]) was 1020 nM and the Kd (HLA-A*24:02; [8]) was 103 nM. For the same sequence, the Kd (HLA-A*30:02; [8]) was 5130 nM, the Kd (HLA-A*26:01 [1]; [8]) was no less than 69700 nM and the Kd (HLA-A*01:01 [2]; [8]) was no less than 28400 nM.
Sequence IRWYISLSF has a Kd (HLA-A*32:01; [5]) of 1170 nM.
ITANPIVTD showed a Kd (HLA-A*32:01; [9]) of 2420 nM.
Sequence KENGVDLSV has a Kd (HLA-B*18:01) of 5220 nM.
In the case of KTIYLLSLF, the Kd (HLA-A*32:01; source organism: Vaccinia virus WR) is reported as 10.3 nM.
Work on KVINLSELL yielded a Kd (HLA-A*23:01; [6]) of 426 nM, a Kd (HLA-A*29:02; [6]) of 11900 nM and a Kd (HLA-A*24:02; [6]) of 17600 nM.
For KVNTTIARY, the Kd (HLA-A*30:01; [10]) was 934 nM, the Kd (HLA-A*29:02; [10]) was 100 nM and the Kd (HLA-A*30:02; [10]) was 5.93 nM. The Kd (HLA-A*26:01 [1]; [10]) was 7460 nM, the Kd (HLA-A*32:01; [10]) was 634 nM and the Kd (HLA-A*01:01 [2]; [10]) was 1630 nM.
In the case of LSHLSLGLI, the Kd (HLA-A*23:01; [7]) is reported as 7760 nM, the Kd (HLA-A*29:02; [7]) is reported as 9100 nM and the Kd (HLA-A*24:02; [7]) is reported as no less than 21000 nM.
In the case of LWTTLLSLTF, the Kd (HLA-A*23:01; [9]) is reported as 20.6 nM and the Kd (HLA-A*24:02; [9]) is reported as 14.3 nM.
